Reference: paper PMC9482650, “Quantitative fragmentomics allow affinity mapping of interactomes” (Nature Communications, 2022)

Assays:
Test in all cases: holdup assay
Parameters in all cases: key: below the threshold = too weak to quantify, mostly under pKd 3.1 to 4
[1] = target: MAGI1_4, Q96QZ7
[2] = target: T1, PARD6B, Q9BYG5
T1 sequence (Q9BYG5 152-260, limits assumed, looked up): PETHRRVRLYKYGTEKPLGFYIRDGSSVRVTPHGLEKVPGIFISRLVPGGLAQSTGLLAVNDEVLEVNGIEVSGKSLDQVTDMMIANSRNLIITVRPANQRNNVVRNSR

[3] = target: T2, NHERF3_2, Q5T2W1
T2 sequence (Q5T2W1 129-225, limits assumed, looked up): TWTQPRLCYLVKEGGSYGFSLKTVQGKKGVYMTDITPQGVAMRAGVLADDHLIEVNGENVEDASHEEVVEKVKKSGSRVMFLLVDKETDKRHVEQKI

[4] = target: GIPC3, Q8TF64
GIPC3, Q8TF64, sequence (Q8TF64 107-202): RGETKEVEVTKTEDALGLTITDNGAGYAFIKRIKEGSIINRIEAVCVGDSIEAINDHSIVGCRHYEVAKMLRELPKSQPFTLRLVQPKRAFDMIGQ

[5] = target: T3, DVL1, O14640
T3 sequence (O14640 246-333, limits assumed, looked up): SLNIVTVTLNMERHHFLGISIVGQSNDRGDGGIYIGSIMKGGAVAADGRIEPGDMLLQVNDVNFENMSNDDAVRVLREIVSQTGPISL

[6] = target: T4, PDZD2_3, O15018
T4 sequence (O15018 581-682, limits assumed, looked up): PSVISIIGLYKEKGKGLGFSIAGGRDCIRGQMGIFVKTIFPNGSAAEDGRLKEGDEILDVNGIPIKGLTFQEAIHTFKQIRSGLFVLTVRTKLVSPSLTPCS

[7] = target: T5, RGS12, O14924
T5 sequence (O14924 17-108, limits assumed, looked up): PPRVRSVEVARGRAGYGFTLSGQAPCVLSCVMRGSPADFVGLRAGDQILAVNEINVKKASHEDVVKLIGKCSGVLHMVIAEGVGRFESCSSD

[8] = target: T6, GRIP1_1, Q9Y3R0
T6 sequence (Q9Y3R0 48-146, limits assumed, looked up): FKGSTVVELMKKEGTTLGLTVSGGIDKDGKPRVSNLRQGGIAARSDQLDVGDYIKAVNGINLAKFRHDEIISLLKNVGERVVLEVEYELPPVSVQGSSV

[9] = target: T7, PTPN13_4, Q12923
T7 sequence (Q12923 1783-1878, limits assumed, looked up): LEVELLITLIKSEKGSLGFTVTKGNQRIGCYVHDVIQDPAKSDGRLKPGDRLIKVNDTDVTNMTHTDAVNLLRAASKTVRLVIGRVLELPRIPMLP

[10] = target: T8, SHROOM4, Q9ULL8
T8 sequence (Q9ULL8 5-102, limits assumed, looked up): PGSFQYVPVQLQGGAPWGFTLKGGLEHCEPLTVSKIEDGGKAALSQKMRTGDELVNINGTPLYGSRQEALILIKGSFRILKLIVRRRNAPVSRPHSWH

[11] = target: T9, PDZD2_4, O15018; conditions: plain residues with an end cap or a label only (N-terminal biotin on a linker: ttds)
T9 sequence (O15018 723-823, limits assumed, looked up): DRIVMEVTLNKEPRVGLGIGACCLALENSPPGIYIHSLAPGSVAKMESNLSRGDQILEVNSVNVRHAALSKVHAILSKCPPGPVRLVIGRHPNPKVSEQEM

[12] = target: T10, USH1C_2, Q9Y6N9
T10 sequence (Q9Y6N9 206-303, limits assumed, looked up): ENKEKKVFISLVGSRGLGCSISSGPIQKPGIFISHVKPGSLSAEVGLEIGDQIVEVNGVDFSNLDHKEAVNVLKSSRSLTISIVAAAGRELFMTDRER

[13] = target: MAGI3_5, Q5TCQ9
MAGI3_5, Q5TCQ9, sequence (Q5TCQ9 847-941): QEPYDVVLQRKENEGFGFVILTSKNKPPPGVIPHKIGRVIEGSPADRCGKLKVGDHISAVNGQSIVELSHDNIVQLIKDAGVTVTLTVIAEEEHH

[14] = target: MAGI3_4, Q5TCQ9
MAGI3_4, Q5TCQ9, sequence (Q5TCQ9 716-815): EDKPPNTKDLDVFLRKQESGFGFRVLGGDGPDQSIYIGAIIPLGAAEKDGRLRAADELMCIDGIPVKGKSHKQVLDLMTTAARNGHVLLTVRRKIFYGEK

[15] = target: MAGI3_6, Q5TCQ9
MAGI3_6, Q5TCQ9, sequence (Q5TCQ9 1014-1103): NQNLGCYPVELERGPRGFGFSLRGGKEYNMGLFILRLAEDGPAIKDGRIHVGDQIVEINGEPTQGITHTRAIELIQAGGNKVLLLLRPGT

[16] = target: Inadl_7, Q8NI35
Inadl_7, Q8NI35, sequence (Q8NI35 1219-1332): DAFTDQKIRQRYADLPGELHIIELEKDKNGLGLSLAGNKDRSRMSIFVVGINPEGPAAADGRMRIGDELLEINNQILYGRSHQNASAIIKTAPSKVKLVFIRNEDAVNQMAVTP

[17] = target: MAGI1_5, Q96QZ7
MAGI1_5, Q96QZ7, sequence (Q96QZ7 986-1098): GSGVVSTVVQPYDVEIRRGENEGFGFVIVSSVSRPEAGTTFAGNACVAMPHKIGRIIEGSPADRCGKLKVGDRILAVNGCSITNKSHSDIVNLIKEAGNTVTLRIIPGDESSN

[18] = target: T11, LNX2_4, Q8N448
T11 sequence (Q8N448 595-690, limits assumed, looked up): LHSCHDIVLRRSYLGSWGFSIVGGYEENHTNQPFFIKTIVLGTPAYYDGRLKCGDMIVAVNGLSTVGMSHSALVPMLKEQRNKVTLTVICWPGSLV

[19] = target: MAGI1_3, Q96QZ7
MAGI1_3, Q96QZ7, sequence (Q96QZ7 638-725): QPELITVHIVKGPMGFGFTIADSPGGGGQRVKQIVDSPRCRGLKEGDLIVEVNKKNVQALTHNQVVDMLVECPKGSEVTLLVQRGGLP

[20] = target: T12, PDZD11, Q5EBL8
T12 sequence (Q5EBL8 42-139, limits assumed, looked up): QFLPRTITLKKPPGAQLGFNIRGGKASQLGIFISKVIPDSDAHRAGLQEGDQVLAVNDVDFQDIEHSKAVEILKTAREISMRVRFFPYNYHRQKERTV

[21] = target: IL16_2, Q14005
IL16_2, Q14005, sequence (Q14005 350-450): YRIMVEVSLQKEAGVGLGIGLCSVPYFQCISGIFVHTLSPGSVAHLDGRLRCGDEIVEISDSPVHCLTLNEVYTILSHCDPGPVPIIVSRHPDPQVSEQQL

[22] = target: SCRIB_4, Q14160
SCRIB_4, Q14160, sequence (Q14160 1095-1204): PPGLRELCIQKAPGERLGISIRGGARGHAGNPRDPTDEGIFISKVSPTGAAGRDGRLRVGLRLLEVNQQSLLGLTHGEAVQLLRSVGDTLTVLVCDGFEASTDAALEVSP

[23] = target: PARD3B_2, Q8TEW8
PARD3B_2, Q8TEW8, sequence (Q8TEW8 376-471): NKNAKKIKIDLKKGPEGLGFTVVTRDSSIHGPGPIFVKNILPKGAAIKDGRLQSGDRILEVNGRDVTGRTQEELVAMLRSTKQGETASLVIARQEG

[24] = target: PDZD9, Q8IXQ8
PDZD9, Q8IXQ8, sequence (Q8IXQ8 23-120): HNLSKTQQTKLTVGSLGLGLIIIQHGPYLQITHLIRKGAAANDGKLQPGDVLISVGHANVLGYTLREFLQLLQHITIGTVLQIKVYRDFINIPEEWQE

[25] = target: DLG5_2, Q8TDM6
DLG5_2, Q8TDM6, sequence (Q8TDM6 714-800): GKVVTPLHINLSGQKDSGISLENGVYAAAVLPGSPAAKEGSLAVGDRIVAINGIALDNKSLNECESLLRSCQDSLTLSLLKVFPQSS

[26] = plain residues with an end cap or a label only (N-terminal biotin on a linker: ttds)
[27] = plain residues with an end cap or a label only (N-terminal biotin on a linker: none)

MAGI1_4, Q96QZ7, sequence (Q96QZ7 other isoform, or with tags, fused parts or gaps): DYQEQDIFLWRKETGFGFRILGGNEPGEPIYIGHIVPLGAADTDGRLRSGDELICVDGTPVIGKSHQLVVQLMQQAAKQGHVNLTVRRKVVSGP

**Q.** With SGSRPSATVV [HPV73-E6, Q82005] as the binder, how does the pKd [1, 26] read?
**A.** below the threshold

**Q.** What about the pKd [2, 26] of the same binder?
**A.** below the threshold

**Q.** What about the pKd [3, 26] of the same binder?
**A.** below the threshold

**Q.** What about the pKd [4, 26] of the same binder?
**A.** below the threshold

**Q.** And the pKd [5, 26]?
**A.** 4.36

**Q.** What about the pKd [6, 26] of the same binder?
**A.** below the threshold

**Q.** And the pKd [7, 26]?
**A.** below the threshold

**Q.** And the pKd [8, 26]?
**A.** below the threshold

**Q.** And the pKd [9, 26]?
**A.** below the threshold

**Q.** What about the pKd [10, 26] of the same binder?
**A.** below the threshold

**Q.** What about the pKd [11] of the same binder?
**A.** 4.26

**Q.** And the pKd [12, 26]?
**A.** below the threshold

**Q.** What about the pKd [13, 26] of the same binder?
**A.** below the threshold

**Q.** And the pKd [14, 26]?
**A.** below the threshold

**Q.** And the pKd [15, 26]?
**A.** below the threshold

**Q.** What about the pKd [16, 26] of the same binder?
**A.** below the threshold

**Q.** What about the pKd [17, 26] of the same binder?
**A.** 4.11

**Q.** And the pKd [18, 26]?
**A.** below the threshold

**Q.** And the pKd [19, 26]?
**A.** below the threshold

**Q.** And the pKd [20, 26]?
**A.** below the threshold

**Q.** What about the pKd [21, 26] of the same binder?
**A.** below the threshold

**Q.** And the pKd [22, 26]?
**A.** below the threshold

**Q.** And the pKd [23, 26]?
**A.** 4.24

**Q.** What about the pKd [24, 26] of the same binder?
**A.** below the threshold

**Q.** Which results are given for SKPTRRETEV [HPV35-E6, P27228]?
**A.** pKd [1, 26]: below the threshold; pKd [2, 26]: below the threshold; pKd [3, 26]: below the threshold; pKd [25, 26]: 4.72; pKd [5, 26]: below the threshold; pKd [6, 26]: below the threshold; pKd [7, 26]: below the threshold; pKd [8, 26]: below the threshold; pKd [9, 26]: below the threshold; pKd [10, 26]: below the threshold; pKd [11]: below the threshold; pKd [13, 26]: below the threshold; pKd [14, 26]: 3.76; pKd [15, 26]: 3.81; pKd [16, 26]: below the threshold; pKd [17, 26]: 4.43; pKd [19, 26]: 4.09; pKd [20, 26]: below the threshold; pKd [21, 26]: 3.57; pKd [22, 26]: 3.78; pKd [23, 26]: below the threshold; pKd [24, 26]: below the threshold

**Q.** With NLNSSRVPDLLV [SARS-CoV2-E, P0DTC4] as the binder, how does the pKd [1, 27] read?
**A.** 3.75

**Q.** And the pKd [2, 27]?
**A.** below the threshold

**Q.** What about the pKd [3, 27] of the same binder?
**A.** below the threshold

**Q.** And the pKd [4, 27]?
**A.** below the threshold

**Q.** And the pKd [25, 27]?
**A.** below the threshold

**Q.** What about the pKd [5, 27] of the same binder?
**A.** below the threshold

**Q.** What about the pKd [6, 27] of the same binder?
**A.** below the threshold

**Q.** And the pKd [7, 27]?
**A.** below the threshold

**Q.** What about the pKd [8, 27] of the same binder?
**A.** below the threshold

**Q.** And the pKd [9, 27]?
**A.** 4.64

**Q.** And the pKd [10, 27]?
**A.** below the threshold

**Q.** What about the pKd [12, 27] of the same binder?
**A.** below the threshold

**Q.** And the pKd [13, 27]?
**A.** below the threshold

**Q.** What about the pKd [14, 27] of the same binder?
**A.** below the threshold

**Q.** And the pKd [15, 27]?
**A.** below the threshold

**Q.** And the pKd [16, 27]?
**A.** below the threshold

**Q.** And the pKd [17, 27]?
**A.** below the threshold

**Q.** What about the pKd [18, 27] of the same binder?
**A.** below the threshold

**Q.** What about the pKd [19, 27] of the same binder?
**A.** below the threshold

**Q.** What about the pKd [20, 27] of the same binder?
**A.** below the threshold

**Q.** And the pKd [21, 27]?
**A.** below the threshold

**Q.** And the pKd [22, 27]?
**A.** below the threshold

**Q.** And the pKd [23, 27]?
**A.** below the threshold

**Q.** And the pKd [24, 27]?
**A.** 3.94
